Laboratory results reported in patent publication US7018836.

Molecular target: Drosophila RNA polymerase II large subunit, P04052
Sequence (P04052 whole entry): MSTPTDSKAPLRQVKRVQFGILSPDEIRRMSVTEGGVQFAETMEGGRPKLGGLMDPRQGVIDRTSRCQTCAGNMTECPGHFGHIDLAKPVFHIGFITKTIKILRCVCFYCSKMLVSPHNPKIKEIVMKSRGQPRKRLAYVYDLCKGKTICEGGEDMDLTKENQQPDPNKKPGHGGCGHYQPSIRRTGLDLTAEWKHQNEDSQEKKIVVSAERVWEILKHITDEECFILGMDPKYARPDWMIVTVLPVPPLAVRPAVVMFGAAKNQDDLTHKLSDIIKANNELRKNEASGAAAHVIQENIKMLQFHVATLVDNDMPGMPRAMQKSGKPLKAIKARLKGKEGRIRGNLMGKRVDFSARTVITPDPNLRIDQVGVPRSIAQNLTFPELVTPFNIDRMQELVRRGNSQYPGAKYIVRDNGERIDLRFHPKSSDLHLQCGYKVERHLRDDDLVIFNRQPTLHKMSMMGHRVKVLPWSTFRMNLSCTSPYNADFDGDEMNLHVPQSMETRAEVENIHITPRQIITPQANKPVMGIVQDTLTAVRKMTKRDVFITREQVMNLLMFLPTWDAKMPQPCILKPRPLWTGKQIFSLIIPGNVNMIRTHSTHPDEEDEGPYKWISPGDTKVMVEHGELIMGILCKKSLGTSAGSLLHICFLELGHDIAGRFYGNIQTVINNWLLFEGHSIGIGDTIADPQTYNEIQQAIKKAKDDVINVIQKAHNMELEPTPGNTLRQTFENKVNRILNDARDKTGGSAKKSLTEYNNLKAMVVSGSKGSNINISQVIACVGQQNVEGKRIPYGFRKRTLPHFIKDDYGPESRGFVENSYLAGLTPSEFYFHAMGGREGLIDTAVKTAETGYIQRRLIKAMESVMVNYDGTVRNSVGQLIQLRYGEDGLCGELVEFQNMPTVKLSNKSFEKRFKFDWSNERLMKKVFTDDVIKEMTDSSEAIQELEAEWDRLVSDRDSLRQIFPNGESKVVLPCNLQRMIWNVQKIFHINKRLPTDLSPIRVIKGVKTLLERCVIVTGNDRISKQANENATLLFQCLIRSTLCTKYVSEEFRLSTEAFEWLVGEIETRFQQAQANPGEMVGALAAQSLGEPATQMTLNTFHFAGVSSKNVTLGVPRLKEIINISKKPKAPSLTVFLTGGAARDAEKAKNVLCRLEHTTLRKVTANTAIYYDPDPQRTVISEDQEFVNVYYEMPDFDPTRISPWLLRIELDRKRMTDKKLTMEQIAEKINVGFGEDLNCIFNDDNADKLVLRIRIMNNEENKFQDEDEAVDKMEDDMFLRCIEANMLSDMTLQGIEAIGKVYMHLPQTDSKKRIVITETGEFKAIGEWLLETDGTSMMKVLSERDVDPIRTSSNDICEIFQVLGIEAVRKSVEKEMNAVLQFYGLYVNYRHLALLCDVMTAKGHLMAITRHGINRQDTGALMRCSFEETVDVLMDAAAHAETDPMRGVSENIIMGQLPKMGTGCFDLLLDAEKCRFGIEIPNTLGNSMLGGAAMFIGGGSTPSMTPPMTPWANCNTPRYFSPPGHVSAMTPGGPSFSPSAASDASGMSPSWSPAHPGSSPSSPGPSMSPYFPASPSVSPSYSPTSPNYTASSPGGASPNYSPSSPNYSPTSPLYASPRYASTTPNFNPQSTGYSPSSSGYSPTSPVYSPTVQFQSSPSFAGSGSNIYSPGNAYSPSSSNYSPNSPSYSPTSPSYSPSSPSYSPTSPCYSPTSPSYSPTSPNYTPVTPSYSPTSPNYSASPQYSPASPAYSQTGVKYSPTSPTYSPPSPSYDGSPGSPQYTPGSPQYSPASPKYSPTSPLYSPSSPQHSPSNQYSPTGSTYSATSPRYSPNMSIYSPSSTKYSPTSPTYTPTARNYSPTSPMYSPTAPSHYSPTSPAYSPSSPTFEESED

B1: Drosophila P-TEFb (protein)
chain 1: MAHMSHMLQQPSGSTPSNVGSSSSRTMSLMEKQKYIEDYDFPYCDESNKYEKVAKIGQGTFGEVFKAREKKGNKKFVAMKKVLMDNEKEGFPITALREIRILQLLKHENVVNLIEICRTKATATNGYRSTFYLVFDFCEHDLAGLLSNMNVKFSLGEIKKVMQQLLNGLYYIHSNKILHRDMKAANVLITKHGILKLADFGLARAFSIPKNESKNRYTNRVVTLWYRPPELLLGDRNYGPPVDMWGAGCIMAEMWTRSPIMQGNTEQQQLTFISQLCGSFTPDVWPGVEELELYKSIELPKNQKRRVKERLRPYVKDQTGCDLLDKLLTLDPKKRIDADTALNHDFFWTDPMPSDLSKMLSQHLQSMFEYLAQPRRSNQMRNYHQQLTTMNQKPQDNSMIDRVW
chain 2: MSLLATPMPQAATASSSSSASAAASASGIPITANNNLPFEKDKIWYFSNDQLANLPSRRCGIKGDDELQYRQMTAYLIQEMGQRLQVSQLCINTAIVYMHRFYAFHSFTHFHRNSMASASLFLAAKVEEQPRKLEHVIRAANKCLPPTTEQNYAELAQELVFNENVLLQTLGFDVAIDHPHTHVVRTCQLVKACKDLAQTSYFLASNSLHLTSMCLQYRPTVVACFCIYLACKWSRWEIPQSTEGKHWFYYVDKTVSLDLLKQLTDEFIAIYEKSPARLKSKLNSIKAIAQGASNRTANSKDKPKEDWKITEMMKGYHSNITTPPELLNGNDSRDRDRDRERERERERDPSSLLPPPAMVPQQRRQDGGHQRSSSVSGVPGSSSSSSSSSHKMPNYPGGMPPEAHPDHKSKQPGYNNRMPSSHQRSSSSGLGSSGSGSQHSSSSSSSSSQQPGRPSMPVDYHKSSRGMPPVGVGMPPHGSHKMTSGSKPQQPQQQPVPHPSASNSSASGMSSKDKSQSNKMYPNAPPPYSNSAPQNPLMSRGGYPGASNGSQPPPPAGYGGHRSKSGSTVHGMPHFEQQLPYSQSQSYGHMQQQPVPQSQQQQMPPEASQHSLQSKNSLFSPEWPDIKKEPMSQSQPQLFNGLLPPPAPPGHDYKLNSHPRDKESPKKERLTPTKKDKHRPVMPPMGSGNSSSGSGSSKPMLPPHKKQIPHGGDLLTNPGESGSLKRPNEISGSQYGLNKLDEIDNSNMPREKLRKLDTTTGLPTYPNYEEKHTPLNMSNGIETTPDLVRSLLKESLCPSNASLLKPDALTMPGLKPPAELLEPMPAPATIKKEQGITPMTSLASGPAPMDLEVPTKQAGEIKEESSSKSEKKKKKDKHKHKEKDKSKDKTEKEERKKHKRDKQKDRSGSGGSKDSSLPNEPLKMVIKNPNGSLQAGASAPIKLKISKNKVEPNNYSAAAGLPGAIGYGLPPTTATTTSASIGAAAPVLPPYGAGGGGYSSSGGSSSGGSSKKKHSDRDRDKESKKNKSQDYAKYNGAGGGIFNPLGGAGAAPNMSGGMGAPMSTAVPPSMLLAPTGAVPPSAAGLAPPPMPVYNKK
CTD kinase assay (phosphate incorporation, mobility shift): incubation of P-TEFb with intact RNA polymerase II caused the incorporation of phosphate into the large subunit and a shift to the IIo form | incorporation of label into the large subunit after chymotrypsin truncation of the CTD: the CTD-less polymerase (20 min digestion) was not detectably phosphorylated
